In WO2002045743A2:

B1: mAb 2P24 (antibody)
chain 1: EFQLQQSGAELVRPGPLVTLSCKASGFNIKDYYMNWVKQRPEQGLEWIGRIDPKNGNALYDPKFQDKARITADTSSNTAYLQLNSLTSEATAVYYCSSGWLDYWGQGTSLAVYS
chain 2: DIVMTQSPASLAVFRGQRATISYRASKSVSTSGYSYMHWNQQKPGQPPRLLIYLVSNLESGVPARFSGSGSGTDFTLNIHPVEEEDAATYYCQHIRELTAFGGGTK
B2: mAb 15H4 (antibody)
chain 1: QVQLQQSGAELARPGASVKLSCKASGYTFTRYWMQWVKQKPGQGLEWIGAIYCGDGDTRFTQKFKGKATLTADKSSSTAYMQLSNLASEDSAVYYCVIYGNYYDAMDYWGQGTSVTVSS
chain 2: DIVMTQAPLSMPVSLGDQASISGRSSQSLVHSNGNTYLHWYLQKPGQSPKLLIHKVSKRFSGVPDRFSGSGSGTDFTLKIRRVEAEDLGVYFCSQNTHVPFTFGGGTK

Columns and labels:
[1] = target: MH2 peptide (Hepatitis C virus); test: peptide EIA (Table 4)
[2] = target: MH2 peptide (Hepatitis C virus); test: peptide EIA, Nunc-Immuno and CovaLab plates
[3] = target: MH2 peptide (Hepatitis C virus); test: IAsys biosensor, BSA-HVR1 peptide conjugate

Row | Binder | EIA Sample/Cutoff ratio (S/CO) [1] | EIA Sample/Cutoff ratio (S/CO) [2] | Kd [3]
1 | B1 | 24.9 S/CO | 24.9 S/CO | 5.85 nM
2 | B2 | 13.6 S/CO | 18.1 S/CO | 21.5 nM
